The labels stand for the following.
B1: F1.280.1 (antibody, human IgG1, kappa, V domains shown)
VH: QIQLVQSGPELKKPGETVKISCKASGYTFTTYGMSWVKQTPGKGLTWMGWINTDSGVPTYADDFKRRFAFSLEASATTAYLQINNLKNEDTATYFCARGGPDYWGQGTTLTVSS
VL: DILLTQSPATLSVTPGETVSLSCRASQSIYKNLHWYHQKSHRSPRLLIKYASDSISGIPSRFTGSGSGTNFTLSINSVKPEDEGIYYCLQGYIVPLTFGAGTKLELKR
notes: Chimeric IgG1 kappa
B2: F1.7.6 (antibody, human IgG1, kappa, V domains shown)
VH: EIQLQQSGPELVKPGTSVKVSCKASGYDFTRYNMYWVKQSHGKSLEWIGYIDPYNGDTRYNQKFKGKATLTVDKSSSTAYMHLNSLTSEDSAVYYCEAIYYDMEGYALDYWGQGTSVTVSS
VL: DIVMSQSPSSLAVSVGEKVTMSCKSSQSLLYSNNQKNYLAWYQQKPGQSPKKLIYWASTRESGVPDRLTGSGSGTDFTLTISSVTAEDLAVYYCQQFYSYPWTFGGGTKLEIKR
notes: Chimeric IgG1 kappa
B3: F2.121.9 (antibody, human IgG1, lambda, V domains shown)
VH: EVQLVESGGGLVKPGGSLKLSCAASGFTFSDYVMSWIRQTPEKRLEWVATISDAGSYTFYPDNLKGRFTISRDNAKNNLYLQMNHLTSEDTAFYYCAIIYFGNYGGYWGQGTLVTVSV
VL: QAVVTQESALTTSPGGTVVLTCRSNTGAVTTSNYANWVQEKPDHLFTGLIGGTSNRAPGVPVRFSGSLIGDKAALTITGAQTEDDAMYFCALWYSTHWVFGGGTKLTVLG
notes: Chimeric IgG1 lambda
B4: F1.231.15 (antibody, IgG1, V domains shown)
VH: QVQLQQPGAELVKPGASVKLSCKTSGYTFTIYWMQWVKQRPGRGLEWIGRIDPHSGDTHYNENFTTKVTLTVDETSNTAYMHLSGLTSEDSAVYYCARRDYSYYVLDYWGQGTSVTVSS
VL: DVVLTQTPLSLPVSLGDQASISCRSSQSLVHINGDTYLHWYLQKPGQSPKLLIYTVFNRFSGVPDRFSGSGSGTDFTLKISRVEAEDLGAYFCSQSTHVPYTFGGGTKLEIKR
notes: Chimeric IgG1 kappa
B5: F1.245.2 (antibody, human IgG1, kappa, V domains shown)
VH: EVQLQQSGAELVKPGASVKLSCTGSGFNIKDYYIHWVKQRTEQGLEWMGRIDPEDGETEYAPKFQDEATITSDTSSNTAYLQLSSLTYEDTAVYYCAREAAGYFYRGSSYGYFDVWGTGTTVTVSS
VL: DFQMTQTTSFLSASLGDRVTISCSASQDISNYLNWYQQKPDGTVKLLIYYTSSLHSGVPSRFSGSGSGTDYSLTISNLEPEDIATYYCQQYSMLPYTFGGGTKLEMER
notes: Chimeric IgG1 kappa
B6: F1.257.3 (antibody, human IgG1, kappa, V domains shown)
VH: QVQLQQSGPELARPGASVKLSCKASGYTFTSYGISWVKQRTGQDLEWIGEIYPKLGTTYYNEKFKDKATLTTDRSSSTAYMALRSLTSEDSAVYFCACPHYYATRGGDYWGQGTTLTVSS
VL: EIVLTQSPATLSVTPGDSVTFSCRASQSISNHLHWYQQKSHESPRLLIRYASQSISGIPSRFSGSGSGTDFTLSLSSVETEDFGVYFCQQSHSWPYTFGGGTKLEIAR
notes: Chimeric IgG1 kappa
B7: F2.55.1 (antibody, human IgG1, lambda, V domains shown)
VH: QVTLKESGPGILQPSQTLSLTCSFSGFSLSTFPLGVGWIRQPSGKGLEWLAHVWWNDDDYYNPALKSRLTISKDTSNTRVFLSVASVDTAETATYYCARLNWDRWYFDVWGTGTTVTVSS
VL: QLVLTQSSSASFSLGASAKLTCTLSSQHSAYTVEWYQQQPLKPPKYVMELKKDGSHSTGDGIPDRFSGSSSGADRYLSISNIQPEDEAIYICGVGDTVKEQFVFGGGTKVTVLG
notes: Chimeric IgG1 lambda
B8: F2.42.9 (antibody, human IgG1, lambda, V domains shown)
VH: QVTLKESGPGILQPSQTLSLTCSFSGFSLSTFDRGVGWIRQPSGKGLEWLAHIWWNDKKFYNPVLKSRLTISKDTSKNQVFLTIANVDSADTATYSCARIVWDKYYFDYWGQGIPLTVSS
VL: B7 VL with V33I, Y46F, E49D, D64A, S78T, V98I, F102Y
notes: Chimeric IgG1 lambda
B9: F1.62.10 (antibody, human IgG1, kappa, V domains shown)
VH: QVQLQQSGPELVKPGASVKISCKASGYEFSSIWMNWVKQRPGEGLEWIGRIFPGDGEINYNEKFKGKATLTADRSSTTAYMQLSSLTSEDSAVYFCAGWRIYYGTYGAMDYWGQGTSVTVSS
VL: DIQMTQITSSLSASLGDRVTISCRASQDIGNYLNWYQQKPDGTVKLLIYYTSRLHSGVPSRFSGSGSRTDYSLTISNLQQEDIATYFCQQGNTLPWTFGGGTKLEIKR
notes: Chimeric IgG1 kappa
B10: F2.70.2 (antibody, human IgG1, lambda, V domains shown)
VH: EVQLVESGGGLVKPGGSLKLSCAASGFTFSDYGMNWFRQAPEKGLEWVAYISRGSHTIYYADTVKGRFTISRDNAKNTLFLQMTSLRSNDTAMYYCVRMAGYYAMDYWGQGTSVTVSS
VL: QLVLTQSSSASFSLGASAKLTCTLSSQHSSYIIEWYQQQPLKPPKYVMELKKDGSHSTGDGIPDRFSGSSSGADRYLSISNIQPEDEAIYICGVGDTIKEQFVYVFGGGTKVTVLG
notes: Chimeric IgG1 lambda
B11: F2.127.11 (antibody, human IgG1, lambda, V domains shown)
VH: QVTLKESGPGILQPSQTLSLTCSFSGFSLSTFGMGVGWIRQPSGKGLEWLAHIWWDDDKHYNPALKSRLTISKDTSRNQVFLKIANVDTADGATYFCARDNWVSSLDYWGQGTSVIVSS
VL: B10 VL with L2P, L4I, K19E, S30T, I32T, E49G, G95S
notes: Chimeric IgG1 lambda
B12: F2.104.10 (antibody, human IgG1, lambda, V domains shown)
VH: B10 VH with L11F, K76E, V114L
VL: B10 VL with L50V, P84S
notes: Chimeric IgG1 lambda
B13: F1.161.7 (antibody, human IgG1, kappa, V domains shown)
VH: QVQLQQPGAELVKPGASVKMSCKASGYTFTSYWISWVKQRPGQGLEWIGDIYPGTGSSNYNEKFKSKATLTVDTSSSTAYMQLSSLTSEDSAVYYCARLKFEGIGYWGQGTTLTVSS
VL: QIVLTQSPAIMSASLGEEITLTCSASSSVSYMHWFQQKSGTSPKLLIYSISNLASGVPSRFSGSGSGTFYSLTISSVEAEDAADYYCHQWSSYPWTFGGGTKLEIKR
notes: Chimeric IgG1 kappa

Numbering of substitutions follows the chain as printed.

For one test, the target named is T1, human CD22 domain5-7-His (human, UniProt P20273 414-687).
T1 construct: also called hCD22 domain5-7-His; not shown: His tag
T1 sequence: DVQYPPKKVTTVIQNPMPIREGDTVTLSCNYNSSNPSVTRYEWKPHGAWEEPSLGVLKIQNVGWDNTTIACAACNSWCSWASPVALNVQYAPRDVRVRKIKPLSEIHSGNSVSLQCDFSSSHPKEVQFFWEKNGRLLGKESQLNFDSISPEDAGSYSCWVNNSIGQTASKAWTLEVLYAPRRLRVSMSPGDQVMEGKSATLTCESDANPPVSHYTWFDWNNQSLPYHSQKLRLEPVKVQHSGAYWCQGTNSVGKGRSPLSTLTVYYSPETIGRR
Nature of the test: ELISA, plate coated with human CD22 domain5-7-His. On the technique in general: In an ELISA, binding on a coated surface is turned into a signal by an enzyme label.
As for B1, the binding result was “no binding”.

Consider B2, for which the binding result is “no binding”.

Regarding B3, the binding result is given as “no binding”.

As for B4, the binding result is listed as “no binding”.

B5: the binding result was “no binding”.

For B6, the binding result is recorded as “no binding”.

For B7, the binding result is “no binding”.

With B8, the binding result is on record as “no binding”.

On to B9, for which the binding result is “no binding”.

For B10, the binding result is on record as “no binding”.

With B11, the binding result is reported as “no binding”.

Regarding B12, the binding result is given as “no binding”.

On to B13, for which the binding result is reported as “no binding”.

The target in the next test is T2, human CD22-ECD-His protein (human, UniProt P20273 20-687).
T2 construct: Recombinant, from HEK293E cells; also called hCD22-ECD-His; human CD22-His protein; not shown: His tag
T2 sequence: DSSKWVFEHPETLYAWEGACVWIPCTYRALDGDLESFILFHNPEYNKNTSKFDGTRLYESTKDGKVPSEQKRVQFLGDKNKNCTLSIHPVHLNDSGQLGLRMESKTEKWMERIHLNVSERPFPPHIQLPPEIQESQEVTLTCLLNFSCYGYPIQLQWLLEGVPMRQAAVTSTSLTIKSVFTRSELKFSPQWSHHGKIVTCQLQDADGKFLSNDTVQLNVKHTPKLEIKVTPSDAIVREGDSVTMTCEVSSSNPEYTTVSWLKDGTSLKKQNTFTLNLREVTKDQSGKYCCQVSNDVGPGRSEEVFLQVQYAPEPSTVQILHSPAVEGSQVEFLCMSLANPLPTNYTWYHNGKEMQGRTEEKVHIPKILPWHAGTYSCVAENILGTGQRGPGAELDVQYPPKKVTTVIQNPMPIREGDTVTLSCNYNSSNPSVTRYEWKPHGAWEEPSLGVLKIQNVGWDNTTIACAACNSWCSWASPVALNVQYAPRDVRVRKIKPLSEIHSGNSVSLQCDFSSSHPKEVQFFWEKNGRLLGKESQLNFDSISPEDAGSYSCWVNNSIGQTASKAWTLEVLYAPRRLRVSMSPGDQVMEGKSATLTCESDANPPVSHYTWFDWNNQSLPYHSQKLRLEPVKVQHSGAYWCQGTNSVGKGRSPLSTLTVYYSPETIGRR
In words: SPR (Biacore), antibody captured on Protein A chip, CD22-ECD-His in solution. Here is the method:
Sample buffer and running buffer were HBS-EP+(10 mM HEPES, 150 mM NaCl, 3 mM EDTA, 0.05% surfactant P20) (GE Healthcare; BR-1006-69). The flow-through cell was set to 25° C. The sample block was set to 16° C. Both were pretreated with the running buffer. In each cycle, the antibody to be tested was first captured with a Protein A chip, then a single concentration of CD22 antigen protein was injected. The binding and dissociation process of the antibody and the antigen protein was recorded, and finally Glycine pH 1.5 (GE Healthcare; BR-1003-54) was used to complete chip regeneration. Binding was measured by injecting different concentrations of recombinant human CD22-ECD His protein in solution for 240 s with a flow rate of 30 μL/min. The concentration started from 200 nM (see the detailed results for the actual concentration in the test) and was diluted at 1:1, making a total of 5 concentrations. The dissociation phase was monitored for up to 600 s and was triggered by switching from sample solution to running buffer. The surface was regenerated by washing with a 10 mM of glycine solution (pH 1.5) for 30 s at a flow rate of 30 μL/min. Bulk refractive index difference was corrected by subtracting the response obtained from the goat anti-human Fc surface. Blank injection was also subtracted (=double reference). For calculation of apparent KD and other kinetic parameters, Langmuir 1:1 model was used.
For B1, binding was put at a Kd of 6.73 nM, the koff is 0.000423 s⁻¹ and the kon came out at 62900 M⁻¹ s⁻¹.

The molecule B2 had a Kd of 1.7 nM, a dissociation rate constant (koff) of 0.000203 s⁻¹ and a kon of 120000 M⁻¹ s⁻¹.

In turn, B3 yielded a Kd of 80 nM, a koff of 0.000393 s⁻¹ and a kon of 4910 M⁻¹ s⁻¹.

As to B4, the affinity, expressed as Kd, was 44.8 nM.

Regarding B5, the Kd came to 0.458 nM, the koff was found to be 0.00119 s⁻¹ and the kon is 2.6e+06 M⁻¹ s⁻¹.

For the molecule B6, the Kd stood at 0.417 nM, the dissociation rate constant (koff) is 0.000113 s⁻¹ and the kon came out at 270000 M⁻¹ s⁻¹.

B7 registered a Kd of 0.586 nM, an off-rate (koff) of 7.42e-05 s⁻¹ and an association rate constant (kon) of 127000 M⁻¹ s⁻¹.

B8 registered a Kd of 10 nM, an off-rate constant (koff) of 0.000663 s⁻¹ and a kon of 66100 M⁻¹ s⁻¹.

Turning to B9, the dissociation constant Kd was 29.3 nM, the koff stood at 0.000399 s⁻¹ and the kon was 13600 M⁻¹ s⁻¹.

B10 registered a Kd of 10.7 nM, a koff of 0.000744 s⁻¹ and a kon of 69500 M⁻¹ s⁻¹.

In turn, B11 gave a Kd of 2.93 nM, a koff of 0.00066 s⁻¹ and a kon of 226000 M⁻¹ s⁻¹.

Molecule B12 came in with a Kd of 8.54 nM, a koff of 0.00061 s⁻¹ and an on-rate constant (kon) of 71400 M⁻¹ s⁻¹.

B13: the Kd worked out at 5.88 nM, the koff amounted to 0.00118 s⁻¹ and the kon was 201000 M⁻¹ s⁻¹.

A word on the Kd: it is the equilibrium constant for the complex coming apart. One may read the koff as the rate constant with which the complex falls apart. A low value points to a long-lived complex. A word on the kon: it is the second-order rate constant of association. Low values mean slower complex formation, high ones faster complex formation.

The values are drawn from patent US20240084003A1 (SIMCERE ZAIMING PHARMACEUTICAL, published 2024).
